Experimental data: patent publication US20220289848A1 (published 2022)
Positions count from the first letter of the chain named.

B1: anti-CD47 monoclonal antibody (mAb) (antibody, V domains shown)
VH: EVQLVQSGAEVKKPGSSVKVSCKASGYSFTHHWIHWVRQAPGQGLEWMGMIDASDSETRLSQKFKDRVTITADKSTSTAYMELSSLRSEDTAVYYCARLGRYYFDYWGQGTTVTVSS
VL: EIVLTQSPATLSLSPGERATLSCRASENVGTYISWYQQKPGQAPRLLIYGASNRYTGIPARFSGSGSGTDFTLTISSLEPEDFAVYYCGESYGHLYTFGGGTKVEIKR
B2: PDL1c-E-LN (bispecific antibody)
heavy: not shown
light: EVQLVESGGGLVQPGGSLRLSCAASGRTFITYAIGWFRQAPGKGREFVSAISWSGSMTSYADSVKGRFTISRDNAKNTLYLQMNSLRPEDTAVYYCAAHRGAIAPIAQSVYTNWGQGTLVTVSSEPKSSDKTHTSPPSPEIVLTQSPATLSLSPGERATLSCRASENVGTYISWYQQKPGQAPRLLIYGASNRYTGIPARFSGSGSGTDFTLTISSLEPEDFAVYYCGESYGHLYTFGGGTKVEIKRTVAAPSVFIFPPSDEQLKSGTASVVCLLNNFYPREAKVQWKVDNALQSGNSQESVTEQDSKDSTYSLSSTLTLSKADYEKHKVYACEVTHQGLSSPVTKSFNRGEC
B3: PDL1a-E-HN (bispecific antibody)
heavy: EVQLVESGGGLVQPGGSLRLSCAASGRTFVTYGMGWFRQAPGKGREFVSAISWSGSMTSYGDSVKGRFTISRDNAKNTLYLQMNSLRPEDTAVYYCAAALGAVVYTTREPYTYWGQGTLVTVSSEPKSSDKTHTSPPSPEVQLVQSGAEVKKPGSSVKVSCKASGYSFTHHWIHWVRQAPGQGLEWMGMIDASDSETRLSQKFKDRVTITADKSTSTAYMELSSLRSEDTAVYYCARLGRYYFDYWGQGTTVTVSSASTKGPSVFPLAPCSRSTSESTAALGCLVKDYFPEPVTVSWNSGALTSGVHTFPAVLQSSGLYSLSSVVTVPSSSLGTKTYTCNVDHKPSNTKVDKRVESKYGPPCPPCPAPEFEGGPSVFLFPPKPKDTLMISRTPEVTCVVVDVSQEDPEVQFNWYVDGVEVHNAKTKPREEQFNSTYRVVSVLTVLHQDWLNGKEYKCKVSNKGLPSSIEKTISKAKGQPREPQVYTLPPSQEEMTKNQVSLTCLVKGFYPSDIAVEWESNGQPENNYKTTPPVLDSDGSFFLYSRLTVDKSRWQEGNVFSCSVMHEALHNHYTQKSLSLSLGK
light: EIVLTQSPATLSLSPGERATLSCRASENVGTYISWYQQKPGQAPRLLIYGASNRYTGIPARFSGSGSGTDFTLTISSLEPEDFAVYYCGESYGHLYTFGGGTKVEIKRTVAAPSVFIFPPSDEQLKSGTASVVCLLNNFYPREAKVQWKVDNALQSGNSQESVTEQDSKDSTYSLSSTLTLSKADYEKHKVYACEVTHQGLSSPVTKSFNRGEC
B4: PDL1a-G15-HC (bispecific antibody)
heavy: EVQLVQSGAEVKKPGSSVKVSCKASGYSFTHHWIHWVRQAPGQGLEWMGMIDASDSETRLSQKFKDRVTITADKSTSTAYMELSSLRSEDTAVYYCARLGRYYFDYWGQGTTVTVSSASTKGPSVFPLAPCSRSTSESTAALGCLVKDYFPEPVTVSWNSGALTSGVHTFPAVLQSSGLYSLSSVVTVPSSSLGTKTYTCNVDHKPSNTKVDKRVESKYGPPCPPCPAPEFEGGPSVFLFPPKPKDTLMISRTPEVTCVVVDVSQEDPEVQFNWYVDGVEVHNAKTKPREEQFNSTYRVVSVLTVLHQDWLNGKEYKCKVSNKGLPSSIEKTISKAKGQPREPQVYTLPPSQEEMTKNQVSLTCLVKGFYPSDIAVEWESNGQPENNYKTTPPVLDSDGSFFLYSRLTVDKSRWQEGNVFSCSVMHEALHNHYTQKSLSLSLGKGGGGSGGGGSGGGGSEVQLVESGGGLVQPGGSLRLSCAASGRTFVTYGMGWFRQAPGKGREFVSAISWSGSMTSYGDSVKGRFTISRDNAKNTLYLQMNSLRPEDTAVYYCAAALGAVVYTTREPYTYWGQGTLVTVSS
light: B3 light
B5: PDL1c-E-HC (bispecific antibody)
heavy: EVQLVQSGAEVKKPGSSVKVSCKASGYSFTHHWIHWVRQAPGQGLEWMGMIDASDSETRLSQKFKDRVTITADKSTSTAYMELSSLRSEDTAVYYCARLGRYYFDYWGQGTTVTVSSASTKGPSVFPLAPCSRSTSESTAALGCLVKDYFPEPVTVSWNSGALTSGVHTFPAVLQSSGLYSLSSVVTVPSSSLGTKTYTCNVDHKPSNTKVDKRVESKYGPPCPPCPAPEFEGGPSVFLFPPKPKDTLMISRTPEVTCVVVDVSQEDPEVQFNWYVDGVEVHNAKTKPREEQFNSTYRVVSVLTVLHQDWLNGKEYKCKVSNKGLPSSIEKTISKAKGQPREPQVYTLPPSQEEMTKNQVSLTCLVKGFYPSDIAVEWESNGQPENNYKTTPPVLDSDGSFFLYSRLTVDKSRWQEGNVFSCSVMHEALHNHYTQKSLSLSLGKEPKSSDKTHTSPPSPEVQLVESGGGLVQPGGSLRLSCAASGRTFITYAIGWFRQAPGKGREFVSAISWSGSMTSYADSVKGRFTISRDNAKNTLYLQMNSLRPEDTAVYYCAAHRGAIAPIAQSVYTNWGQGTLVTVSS
light: B3 light
B6: PDL1b-E-HC (bispecific antibody)
heavy: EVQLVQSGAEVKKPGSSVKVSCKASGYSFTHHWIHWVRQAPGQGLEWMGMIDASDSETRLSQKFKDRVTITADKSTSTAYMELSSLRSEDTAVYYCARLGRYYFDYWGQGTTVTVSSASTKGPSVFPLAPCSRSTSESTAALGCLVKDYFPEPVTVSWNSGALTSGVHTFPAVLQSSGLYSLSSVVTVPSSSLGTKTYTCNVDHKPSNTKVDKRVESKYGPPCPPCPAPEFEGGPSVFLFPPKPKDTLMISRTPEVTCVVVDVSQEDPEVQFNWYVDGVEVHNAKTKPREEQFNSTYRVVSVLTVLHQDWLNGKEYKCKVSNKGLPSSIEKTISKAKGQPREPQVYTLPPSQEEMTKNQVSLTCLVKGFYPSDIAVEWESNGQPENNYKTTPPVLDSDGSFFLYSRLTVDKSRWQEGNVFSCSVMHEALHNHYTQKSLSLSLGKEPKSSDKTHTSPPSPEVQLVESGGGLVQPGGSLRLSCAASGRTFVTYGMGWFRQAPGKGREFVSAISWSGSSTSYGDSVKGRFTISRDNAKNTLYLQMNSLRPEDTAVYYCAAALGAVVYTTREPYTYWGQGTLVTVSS
light: B3 light
B7: PDL1b-E-HN (bispecific antibody)
heavy: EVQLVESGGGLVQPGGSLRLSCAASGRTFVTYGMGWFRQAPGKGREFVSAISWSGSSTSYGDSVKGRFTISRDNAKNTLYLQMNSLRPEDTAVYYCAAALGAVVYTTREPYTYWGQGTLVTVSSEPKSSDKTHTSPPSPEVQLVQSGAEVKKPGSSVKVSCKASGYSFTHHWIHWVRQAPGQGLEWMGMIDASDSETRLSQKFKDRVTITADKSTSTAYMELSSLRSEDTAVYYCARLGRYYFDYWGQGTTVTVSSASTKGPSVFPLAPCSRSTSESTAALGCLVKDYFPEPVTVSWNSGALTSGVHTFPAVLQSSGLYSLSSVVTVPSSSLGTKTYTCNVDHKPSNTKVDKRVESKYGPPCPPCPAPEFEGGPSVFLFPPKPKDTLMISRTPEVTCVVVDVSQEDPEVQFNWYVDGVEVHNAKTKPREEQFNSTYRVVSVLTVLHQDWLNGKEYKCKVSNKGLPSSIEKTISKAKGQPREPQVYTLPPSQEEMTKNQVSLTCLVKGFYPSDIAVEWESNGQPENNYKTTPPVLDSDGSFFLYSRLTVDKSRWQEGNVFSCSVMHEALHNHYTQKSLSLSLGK
light: B3 light
B8: PDL1a-E-HC (bispecific antibody)
heavy: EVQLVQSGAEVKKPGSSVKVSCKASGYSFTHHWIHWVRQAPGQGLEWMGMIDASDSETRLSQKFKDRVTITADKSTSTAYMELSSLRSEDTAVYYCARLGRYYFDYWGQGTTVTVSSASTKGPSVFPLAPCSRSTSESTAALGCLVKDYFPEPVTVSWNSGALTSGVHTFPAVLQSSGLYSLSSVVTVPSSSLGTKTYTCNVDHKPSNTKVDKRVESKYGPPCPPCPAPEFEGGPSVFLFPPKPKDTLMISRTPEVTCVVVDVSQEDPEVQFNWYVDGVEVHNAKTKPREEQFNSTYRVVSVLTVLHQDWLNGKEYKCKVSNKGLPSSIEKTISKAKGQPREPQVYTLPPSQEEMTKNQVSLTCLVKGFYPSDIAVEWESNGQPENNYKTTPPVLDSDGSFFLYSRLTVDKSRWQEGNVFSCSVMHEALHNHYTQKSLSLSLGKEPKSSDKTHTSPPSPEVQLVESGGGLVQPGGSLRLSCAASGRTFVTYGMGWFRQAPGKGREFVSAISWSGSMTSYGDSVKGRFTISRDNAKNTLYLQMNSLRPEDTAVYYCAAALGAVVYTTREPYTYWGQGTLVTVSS
light: B3 light
B9: PDL1a-G15-HN (bispecific antibody)
heavy: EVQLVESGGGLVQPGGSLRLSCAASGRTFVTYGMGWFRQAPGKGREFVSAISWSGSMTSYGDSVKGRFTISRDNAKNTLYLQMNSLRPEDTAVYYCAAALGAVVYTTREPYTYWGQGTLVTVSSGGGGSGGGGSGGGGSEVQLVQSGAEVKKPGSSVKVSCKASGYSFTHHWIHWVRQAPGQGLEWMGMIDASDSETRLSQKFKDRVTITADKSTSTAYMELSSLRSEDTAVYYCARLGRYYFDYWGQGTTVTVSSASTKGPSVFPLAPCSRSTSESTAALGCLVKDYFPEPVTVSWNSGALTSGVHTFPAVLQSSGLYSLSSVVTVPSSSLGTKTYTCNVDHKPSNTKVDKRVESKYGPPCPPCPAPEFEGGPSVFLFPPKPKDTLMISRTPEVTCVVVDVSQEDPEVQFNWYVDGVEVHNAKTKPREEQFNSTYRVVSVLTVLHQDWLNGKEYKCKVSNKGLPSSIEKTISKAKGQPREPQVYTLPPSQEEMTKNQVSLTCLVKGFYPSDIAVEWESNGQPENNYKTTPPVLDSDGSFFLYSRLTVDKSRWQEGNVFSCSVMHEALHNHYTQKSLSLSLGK
light: B3 light
B10: PDL1c-E-HN (bispecific antibody)
heavy: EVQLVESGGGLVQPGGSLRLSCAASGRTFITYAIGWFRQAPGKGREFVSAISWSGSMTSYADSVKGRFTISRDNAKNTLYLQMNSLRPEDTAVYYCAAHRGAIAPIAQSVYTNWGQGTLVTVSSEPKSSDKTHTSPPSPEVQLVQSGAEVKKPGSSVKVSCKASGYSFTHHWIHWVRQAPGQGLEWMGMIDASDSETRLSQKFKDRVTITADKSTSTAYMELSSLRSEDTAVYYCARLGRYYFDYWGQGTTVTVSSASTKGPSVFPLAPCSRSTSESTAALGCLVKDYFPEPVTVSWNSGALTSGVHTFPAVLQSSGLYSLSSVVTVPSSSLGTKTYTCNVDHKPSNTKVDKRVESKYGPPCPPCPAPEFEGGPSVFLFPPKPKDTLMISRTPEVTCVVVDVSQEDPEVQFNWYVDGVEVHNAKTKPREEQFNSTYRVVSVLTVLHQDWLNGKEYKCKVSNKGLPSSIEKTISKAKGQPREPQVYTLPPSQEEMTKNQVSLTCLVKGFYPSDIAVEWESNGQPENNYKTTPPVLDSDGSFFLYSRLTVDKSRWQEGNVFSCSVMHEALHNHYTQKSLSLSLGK
light: B3 light
B11: PDL1a-E-LN (bispecific antibody)
heavy: not shown
light: EVQLVESGGGLVQPGGSLRLSCAASGRTFVTYGMGWFRQAPGKGREFVSAISWSGSMTSYGDSVKGRFTISRDNAKNTLYLQMNSLRPEDTAVYYCAAALGAVVYTTREPYTYWGQGTLVTVSSEPKSSDKTHTSPPSPEIVLTQSPATLSLSPGERATLSCRASENVGTYISWYQQKPGQAPRLLIYGASNRYTGIPARFSGSGSGTDFTLTISSLEPEDFAVYYCGESYGHLYTFGGGTKVEIKRTVAAPSVFIFPPSDEQLKSGTASVVCLLNNFYPREAKVQWKVDNALQSGNSQESVTEQDSKDSTYSLSSTLTLSKADYEKHKVYACEVTHQGLSSPVTKSFNRGEC
B12: PDL1b-E-LN (bispecific antibody)
heavy: not shown
light: B11 light with M57S
B13: PDL1a-G15-LN (bispecific antibody)
heavy: not shown
light: EVQLVESGGGLVQPGGSLRLSCAASGRTFVTYGMGWFRQAPGKGREFVSAISWSGSMTSYGDSVKGRFTISRDNAKNTLYLQMNSLRPEDTAVYYCAAALGAVVYTTREPYTYWGQGTLVTVSSGGGGSGGGGSGGGGSEIVLTQSPATLSLSPGERATLSCRASENVGTYISWYQQKPGQAPRLLIYGASNRYTGIPARFSGSGSGTDFTLTISSLEPEDFAVYYCGESYGHLYTFGGGTKVEIKRTVAAPSVFIFPPSDEQLKSGTASVVCLLNNFYPREAKVQWKVDNALQSGNSQESVTEQDSKDSTYSLSSTLTLSKADYEKHKVYACEVTHQGLSSPVTKSFNRGEC

How the values were obtained:
[1] = molecular target: CD47 expressed on CHO-K1 cells (UniProt Q08722 19-323); assay: FACS
[2] = molecular target: PD-L1 expressed on CHO-K1 cells (UniProt Q9NZQ7 19-290); assay: FACS binding, CHO-K1 cells expressing PD-L1
Sequence of PD-L1 expressed on CHO-K1 cells (Q9NZQ7 19-290): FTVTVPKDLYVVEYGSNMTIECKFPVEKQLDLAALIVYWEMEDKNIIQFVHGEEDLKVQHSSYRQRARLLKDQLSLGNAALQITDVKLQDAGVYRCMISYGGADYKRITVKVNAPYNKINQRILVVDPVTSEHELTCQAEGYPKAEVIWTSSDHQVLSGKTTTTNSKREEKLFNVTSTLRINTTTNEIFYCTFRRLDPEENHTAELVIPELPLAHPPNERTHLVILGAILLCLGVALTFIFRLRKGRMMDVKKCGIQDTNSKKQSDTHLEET

Row | Binder | EC50 [1] [pM] | EC50 [2] [pM]
1 | B1 | 324 | 
2 | B2 |  | 718
3 | B3 | 854 | 759
4 | B4 | 247 | 
5 | B5 | 287 | 
6 | B6 | 328 | 
7 | B7 | 521 | 
8 | B8 | 255 | 
9 | B9 | 664 | 
10 | B10 | 700 | 1480
11 | B11 |  | 351
12 | B12 |  | 1180
13 | B13 |  | 1110
